One assay concerns the target T1, IGF-1R on MCF-7 cells (Homo sapiens, UniProt P08069).
T1 construct: host or cells: MCF-7
Nature of the assay: IGF-1R internalization by FACS on MCF-7 cells. In kind it is cell-based. As to conditions: Table 14c; MCF-7, 10 μg/ml, 4 h. The method, then:
MCF-7 cells were incubated with 10 μg/ml of chimeric antibodies at 4° C. for 20 min. Then, cells were washed and incubated at 4° C. or 37° C. for 4 h. The quantity of cell-surface bound antibody was determined using a secondary antibody. The ΔMFI defined as the difference between MFI measured at 4° C. and MFI measured at 37° C. after a 4 hour incubation time corresponded to the quantity of internalized second IGF-1R antibodies Ab. The percentage of internalization at 10 μg/ml of Ab were calculated as followed 100*(MFI at 4° C.-MFI at 37° C.)/MFI at 4° C. and presented in Table 12.
The capacity of the mAb hz208F2 H026/L024 to be internalized was assessed by flow cytometry. MCF-7 cells were incubated with 10 μg/ml of antibodies at 4° C. for 20 min. […] The quantity of cell-surface bound antibody was determined using a secondary antibody. The ΔMFI defined as the difference between MFI measured at 4° C. and MFI measured at 37° C. after a 4 hour incubation time corresponded to the quantity of internalized Ab. The percentage of internalization at 10 μg/ml of Ab were calculated as followed 100*(MFI at 4° C.-MFI at 37° C.)/MFI at 4° C. and presented in Table 14a.
MCF-7 cells were incubated with 10 μg/ml of humanized antibodies at 4° C. for 20 min. […] The quantity of cell-surface bound antibody was determined using a secondary antibody on a FacsCalibur Flow cytometer (Becton Dickinson). […]
(In general: Flow cytometry measures light scatter and fluorescence of single cells or particles in a stream.)

For another assay, the target named is T2, soluble form of h-IGF1R (Homo sapiens, UniProt P08069).
T2 construct: a heterotetramer composed by two alpha chains and two extracellular domains of the beta chains; made in house
The assay can be described thus: Biacore binding competition on captured soluble h-IGF1R. As to conditions: antibodies 50 μg/ml, 25° C. The source says:
The experiment was run on a Biacore X100 device based on the Surface Plasmon Resonance technology. A CM5 sensor chip was activated with a mouse anti-polyHistidine IgG1 monoclonal antibody chemically linked to the carboxymethyldextran matrix using the amine coupling chemistry. Typically, 12451 RU and 12257 RU of antibodies were grafted on the flowcell 1 (FC1) and flowcell 2 (FC2) respectively. The classical HBS-EP+ buffer was used as the running buffer. This buffer was also used for the preparation of the solutions of the proteins. The experiment was carried at 25° C. and at a flow rate of […].
The soluble form of IGF1R produced in house is a heterotetramer composed by two alpha chains and two extracellular domains of the beta chains completed by a 6 Histidine sequence at their C-terminal end. The protein is injected during one minute on the FC2 at the concentration of 30 μg/ml (about 80 nM). The antibodies are injected at the concentration of 50 μg/ml (about 330 nM). Either a first antibody solution (FIGS. 35B and 35D) or the running buffer (FIGS. 35A and 35C) is injected during 90 s on both flowcells. A second antibody solution is then injected on both flow cells. The absence of binding of the second antibody after the binding of the first antibody is the proof that both antibodies bind to a nearby site on the antigen (FIG. 35B) At the opposite the binding of the second antibody after the binding of the first antibody is the proof that the binding site of the second antibody is out and away of the binding site of the first antibody (FIG. 35D). At the end of each cycle, the sensor chip surface is regenerated by an injection of a Glycine, HCl 10 mM pH 1.5 buffer during 30 s.
The levels of binding of the Ac2 (arrows) without (FIGS. 35A and 35B) or with an Ac1 (FIGS. 35C and 35D) were recorded 20 s after the end of the injection. The data are represented on the histogram graph in FIG. 36.
(SPR reads the build-up and loss of mass on a sensor chip optically.)

B1: hz208F2 H077/L018: humanized 208F2; VH SEQ ID No. 57, VL SEQ ID No. 34 (antibody, V domains shown)
VH: QVQLVQSGAEVKKPGASVKVSCKASGYTFTSYYIHWVRQAPGQGLEWMGWIWPGDGSTKYAQKFQGRVTMTRDTSTSTVYMELSSLRSEDTAVYFCASPMITPNYAMDYWGQGTLVTVSS
VL: DIQMTQSPSSLSASVGDRVTITCRASQDISKYLNWYQQKPGKAPKLLIYYTSRLQSGVPSRFSGRGSGTDYSLTISSLQPEDFATYFCQQGSTLPYTFGGGTKVEIK
modifications: hz208F2 heavy chain H077, VH; hz208F2 Light chain L018, VL
For the molecule B1, in the assay with IGF-1R on MCF-7 cells, the “% Internalization” value is 88% and the ΔMFI amounted to 468. Further, the “binding as Ac2 after Hz208F2-4 injected as Ac1” value in the assay with soluble form of h-IGF1R is reported as “completely blocks the binding of itself”.

These data come from patent publication US10858423B2, “Composition for the treatment of IGF-1R expressing cancer” (PIERRE FABRE MEDICAMENT, priority 2015, dated 2020).
